What is called EC50 is the concentration giving half of the maximal effect.

Data on one substance can be found in article PMC9844003.

In test [1] the target is extracellular domain of CD47 fused to a His(×6)-Avi-tag (human). As to the kind of experiment: ELISA; pH 7.2.
Test [2] has the same target. As to the kind of experiment: ELISA; pH 6.6.
For test [3] the target is unchanged. As to the kind of experiment: ELISA; pH 7.4.
Test [4] has the same target. Briefly: ELISA; pH 7.0.
The target is the same in test [5]. Briefly: ELISA; pH 7.6. For orientation: ELISA stands for enzyme-linked immunosorbent assay.
Test [6] has the same target. Briefly: ELISA; pH 6.4.
Test [7] shares this target. As to the kind of experiment: ELISA; pH 6.8.
The target is the same in test [8]. As to the kind of experiment: ELISA; pH 6.2.

Sequence of extracellular domain of CD47 fused to a His(×6)-Avi-tag (human) (Q08722 19-141): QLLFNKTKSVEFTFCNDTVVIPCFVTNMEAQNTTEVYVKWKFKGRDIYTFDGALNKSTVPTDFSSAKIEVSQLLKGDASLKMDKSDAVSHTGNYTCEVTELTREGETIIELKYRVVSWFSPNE

Turning to Hu5F9, the EC50 in test [1] amounted to 0.03 nM; in test [2] it was 0.04 nM; in test [3], 0.04 nM; in test [4], 0.04 nM; in test [5] it was 0.04 nM; in test [6], 0.04 nM. The EC50 in test [7] came to 0.03 nM; in test [8], 0.04 nM.
